For one experiment, the system named is TAB-K94 antibody. Kind of experiment: ELISA with selected phage as coating antigen and TAB-K94 antibody as primary antibody. The settings on record: 100 ng/100 μl TAB-K94 antibody, absorbance at 450 nm. It counts as binding, mouse. How it is done:
In order to examine the reactivity of the selected TAB-K94 antibody-specific phages against TAB-K94 antibody, ELISA was performed using the phage as a coating antigen and TAB-K94 antibody as a primary antibody. The detailed method is as follows:
[…] was diluted in 100 μl of a coating solution (0.1 M sodium bicarbonate buffer, pH 8.6) and added to each well of 96-well Maxisorp ELISA plate. For antigen coating, the phage-added plate was stored at 4° C. for 16 hours or longer. After phage coating, 300 μl of skim milk solution (5% (w/v) skim milk/TBST) was added, and reacted at room temperature for 1 hour to block the remaining sites after antigen coating. After blocking, the plate was washed with TBST (TBS containing 0.1% Tween-20) twice, and 100 ng/100 μl of TAB-K94 antibody was added thereto, and reacted at room temperature for 90 minutes. […] The secondary antibody was also reacted at room temperature for 90 minutes, and the plate was washed with TBST six times. Color development was performed using a TMB solution (Pierce) as a substrate for HRP. Absorbance was measured at 450 nm to quantify the antigen-antibody reaction.

The target of experiment [1] is T1, CK8 (Homo sapiens, UniProt P05787).
T1 construct: made in house; host or cells: E. coli BL21 (DE3)
T1 sequence (P05787 1-483): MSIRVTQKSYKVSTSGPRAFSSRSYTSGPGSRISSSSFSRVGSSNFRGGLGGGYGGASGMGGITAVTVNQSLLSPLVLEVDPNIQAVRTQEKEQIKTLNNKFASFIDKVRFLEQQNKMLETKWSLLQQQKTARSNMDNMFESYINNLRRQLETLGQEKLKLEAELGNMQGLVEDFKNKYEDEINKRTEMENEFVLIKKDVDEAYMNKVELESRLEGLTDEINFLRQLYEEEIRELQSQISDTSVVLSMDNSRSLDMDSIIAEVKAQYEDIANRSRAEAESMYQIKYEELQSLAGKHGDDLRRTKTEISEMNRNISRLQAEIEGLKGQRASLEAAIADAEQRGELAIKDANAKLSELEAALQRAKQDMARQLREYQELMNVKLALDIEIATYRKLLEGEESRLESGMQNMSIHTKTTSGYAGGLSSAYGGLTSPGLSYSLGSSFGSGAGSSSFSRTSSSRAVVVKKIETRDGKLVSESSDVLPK
The experiment can be described thus: Western blotting of recombinant proteins with TAB-K94 antibody. It counts as binding. The note with it: CK8 run alone. The text has this: (§1) ID NO. 33), CK18 [NT] ID NO. 34), [NT] ID NO.

For experiment [2], the target named is T2, CK18 (Homo sapiens, UniProt P05783).
T2 construct: made in house; host or cells: E. coli BL21 (DE3)
T2 sequence (P05783 1-430): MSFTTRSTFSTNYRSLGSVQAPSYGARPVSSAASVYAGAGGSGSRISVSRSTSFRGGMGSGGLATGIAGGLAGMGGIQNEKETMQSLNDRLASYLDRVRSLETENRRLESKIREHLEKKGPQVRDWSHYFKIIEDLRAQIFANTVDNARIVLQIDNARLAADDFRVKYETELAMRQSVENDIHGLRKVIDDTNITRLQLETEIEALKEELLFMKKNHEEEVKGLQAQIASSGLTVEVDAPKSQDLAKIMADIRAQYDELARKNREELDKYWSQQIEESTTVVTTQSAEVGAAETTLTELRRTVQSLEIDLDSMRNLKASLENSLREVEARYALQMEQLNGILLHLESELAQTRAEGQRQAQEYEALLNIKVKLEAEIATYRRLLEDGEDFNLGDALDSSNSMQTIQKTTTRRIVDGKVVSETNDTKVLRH
Described as above. It counts as binding. The note with it: CK18 run alone.
Text: as §1

The target in experiment [3] is T3, CK8/18 mixture (CK8/18 complex) (Homo sapiens, UniProt P05783+P05787).
T3 construct: made in house; host or cells: E. coli BL21 (DE3)
T3 sequence (P05787 1-483): T1 sequence (P05787 1-483)
T3 sequence (P05783 1-430): T2 sequence (P05783 1-430)
The experiment is described as above. It counts as binding. The settings on record: mixture of CK8 and CK18.
Text: as §1

The target of the next experiment is T4, CK8/18 complex (Homo sapiens, UniProt P05783+P05787).
T4 construct: made in house; host or cells: E. coli BL21 (DE3)
T4 sequence (P05787 1-483): T1 sequence (P05787 1-483)
T4 sequence (P05783 1-430): T2 sequence (P05783 1-430)
Kind of experiment: ELISA with recombinant protein as coating antigen. It counts as binding. The settings on record: mixture of the two proteins as coating antigen.

Experiment [4] relates to MCF-7 or HT29 cells having the suppressed CK8 or CK18 expression. The experiment can be described thus: Flow cytometry of cells with siRNA-suppressed CK8 or CK18 expression. It counts as cell-based. The settings on record: 72 hours after siRNA treatment. On the procedure: As siRNAs for the suppression of CK8 and CK18 expression, siRNAs (CK8 Sense: 5′-CCG CAG UUA CGG UCA ACC A(dTdT)-3′ (SEQ ID NO. 23), Antisense: 5′-UGG UUG ACC GUA ACU GCG G(dTdT)-3′ (SEQ ID NO. 24), CK18 Sense: 5′-CUC ACA GAG CUG AGA CGU A(dTdT)-3′ (SEQ ID NO. 25), Antisense: 5′-UAC GUC UCA GCU CUG UGA C(dTdT)-3′ (SEQ ID NO. 26)) provided by Bioneer were used, and injected into MCF-7 or HT29 cells using Lipofectamine 2000 (Invitrogen). 72 hours after siRNA treatment, the cells were collected to extract total RNA, and 5 μg of RNA was used as a template to synthesize cDNA. The synthesized cDNA was used as a template to perform polymerase chain reaction using primers having specificity to CK8 and CK18. The resulting product was analyzed on a 1% agarose gel.
The cells showing the suppressed CK8 and CK18 expression by siRNA in RT-PCR were subjected to flow cytometry in the same manner as in Examples 1 and 3, in order to examine their TAB-K94 antibody reaction. […] However, the previous studies reported that […] form a complex to exert intracellular function. Therefore, it can be assumed that variation in the expression of one of the two proteins affects that of the other protein, and this assumption was examined by Western blotting. After treatment of siRNA for CK8 or CK18, Western blotting was performed using specific antibody to each.

Experiment [5] deals with T1, CK8. Kind of experiment: ELISA with recombinant protein as coating antigen. It counts as binding.
In experiment [6] the test system is breast cancer cell line MCF-7. Kind of experiment: Flow cytometry after intracellular staining of cell lines with TAB-K94 antibody. It counts as cell-based. On the procedure:
(§2) The reactivity of autoantibodies against cancer cells was examined by flow cytometric analysis of cancer cell line after intracellular staining following the fixation and permeabilization. The method is described in detail as follows. A liver cancer cell line, HepG2 or Hepa1c1c7 at 70-80% confluency was treated with trypsin, detached from the cell culture plate, and washed with PBS. 100 μl of Cytofix/Cytoperm solution (BD) per 2×10^5 cells was added thereto, and the cells were incubated at 4° C. for 20 minutes for fixation and permeabilization. After incubation, 1 ml of Cytowash/Cytoperm solution (BD) was added and mixed well. Then the mixture was centrifuged at 1700 rpm for 5 minutes and the cell pellet was washed. 50 μl of a primary antibody solution (B cell hybridoma cell culture medium or purified primary antibody solution) was added to the washed sample, and the incubation was performed at 4° C. for 40 minutes. After incubation, the cells were washed three times, and treated with anti-mouse Igs-RPE (DaKo) at 4° C. for 40 minutes. Then, the cells were washed an additional three times, and the cell pellet was resuspended in 300 μl of PBS, followed by analysis using a FACSCaliber (BD). Mean values of fluorescence corresponding to antibody reactions were obtained and compared. 50 μl of mouse antibody free DMEM medium was added to the control group showing no antibody reaction.
(§3) The reactivity of TAB-K94 autoantibodies against various cancer cell lines was examined by flow cytometric analysis after intracellular staining of various cancer cell lines in the same manner as in Example 1 (FIG. 3A).

In the next experiment the test system is HT22 neuronal cells. The description is as above. It counts as cell-based. The note with it: normal cell line. How it is done: as §2, §3
Experiment [7] deals with liver cancer cell line HepG2. Described as above. It counts as cell-based. How it is done: as §2, §3
The subject of another experiment is Chang liver cells. The experiment is described as above. It counts as cell-based. The note with it: normal cell line. How it is done: as §2, §3
For experiment [8], the system named is breast cancer cell line MCF-7. Kind of experiment: Western blotting of cell lysate and serum-free cell culture medium with TAB-K94 antibody. It counts as binding. The settings on record: MCF-7 cell lysate and cell culture medium, 50 μg protein. How it is done: Expression of TAB-K94 antibody-specific antigen proteins was examined in various cancer cell lines by Western blotting (FIG. 5A). The detailed method is as follows. The cells to be analyzed were collected and dissolved in PBS containing RIPA buffer (0.1% (w/v) SDS, 0.1% (w/v) sodium deoxycholate, 1.0% (v/v) NP40, protease inhibitor cocktail (Roche)) to be used as protein analysis samples. Protein quantification was performed by Bradford assay. Each 50 μg of the prepared protein samples was run on 10% reduced SDS-PAGE, and transferred onto a PVDF membrane. […] As a result, the TAB-K94 antibody-specific antigens were found in the liver cancer cell lines including Hep3B, PLC/PRF/5, and SK-Hep1 as a band having a molecular weight of 45 kDa.
For induction of antibodies in the individual, a specific protein should be released into the blood. That is, extracellular release of proteins expressed within the cells supports the induction of autoantibodies. Therefore, the presence of antigens was examined in the cell culture medium of cell lines expressing TAB-K94 antibody-specific antigens by Western blotting. Each 10 ml of serum-free cell culture medium was collected, and concentrated, and each 50 μg of the quantified protein was run on 10% reduced SDS-PAGE. Western blotting was performed in the same manner as above.

Experiment [9] concerns the target T2, CK18. Kind of experiment: ELISA with recombinant protein as coating antigen. It counts as binding.
Experiment [10] relates to HepG2, MCF-7 and HT29 cells. Kind of experiment: Intracellular localization by fluorescence staining and confocal laser microscopy. It counts as cell-based. The note with it: primary antibody 5 μg/ml. On the procedure:
In order to examine intracellular localization of the TAB-K94 antigen expression, the corresponding cells were cultured on a coverslip, and then intracellular staining was performed, followed by observation using confocal laser microscopy (Zeiss). […] The stained coverslip was treated with a mounting solution containing DAPI, and placed on a slide. […] It was confirmed that the TAB-K94 antibody-specific antigen is a CK8/18 complex, and thus the cells were stained with CK8 and CK18-specific antibodies to compare with the localization of TAB-K94 antibody reaction.

The subject of experiment [11] is human breast cancer tissues. The experiment can be described thus: Immunohistostaining of human cancer tissues using TAB-K94 antibody. The note with it: in particular invasive front. The text has this:
(§4) Based on the reactivity against cancer cells, expression of TAB-K94 antibody-reactive antigen was examined by immunohistostaining of human liver cancer tissues and breast cancer tissues using TAB-K94 antibodies.

Experiment [12] relates to human liver cancer tissues. The description is as above. The note with it: liver cancer tissues (data not shown).
Text: as §4

“Also recorded” adds a separate entry of the source.

Consider “TLSHTRT (Thr-Leu-Ser-His-Thr-Arg-Thr) [K94p7]”, for which the “reactivity against TAB-K94 antibody in ELISA” value in the experiment with TAB-K94 antibody is on record as “no reactivity”.
Same read-out and setting: the result for “ISPDAHS (Ile-Ser-Pro-Asp-Ala-His-Ser) [K94p1]” reads “high reactivity”.

B1: TAB-K94 antibody: Monoclonal autoantibody against cytokeratin 8/18 complex from hybridoma KCTC 11799BP; heavy chain SEQ ID NO. 1, light chain SEQ ID NO. 2 (antibody, V domains shown)
VH: XVXLXQSGPGILQPSQTLSLTCSFSGFSLSTFGMGVGWIRQPSGKGLEWLAHIWWDDDKYYNPALKSRLTISKDTSKNQVFLKIANVDTADTATYYCARIGGYYGSSSWYFDVWGTGTTVTVSSESQSFPNVRSS
VL: DIVITQTPSSLSASLGGKVTITCKASQDINKYIAWYQHKPGKGPRLLIHYTSTLQPGIPSRFSGSGSGRDYSFSISNLEPEDIATYYCLQYDNLLTFGGGTKLEIKRADAAPTVS
modifications: not fully specified; a heavy chain variable region; a light chain variable region
As for B1, the “reactivity in Western blotting” value with CK8 [1] was “no reactivity”; with CK18 [2], “no reactivity”; in [3], “showed reactivity”; in experiment [8] it was “very high reactivity”. The figures for the “reactivity in ELISA” value in the experiment with CK8/18 complex, in the experiment with CK8 [5] and with CK18 [9] were “the reactivity was observed”, “not observed” and “not observed”, respectively. In experiment [4], the “TAB-K94 antibody reaction after siRNA suppression of CK8 or CK18” value is “reduced”. Further, the “reactivity measured by flow cytometry after intracellular staining” value in experiment [6] is recorded as “High reactivity; also recorded: noticeably increased”; in the experiment with HT22 neuronal cells, “lower reactivity”; in [7] it was “High reactivity; also recorded: noticeably increased”; in the experiment with Chang liver cells it was “lower reactivity”. The “intracellular localization of staining” value in [10] is listed as “strongly localized in the cell membrane”. For the same molecule, the “staining of tissue by immunohistochemistry” value is listed as “strong complete staining; also recorded: strong staining around cell membrane” in experiment [11] and “hardly any distinct reaction; also recorded: no distinct reaction” in [12].

Values taken from patent US9234893B2, “Marker comprising anti-CK8/18 complex autoantibody and its use for diagnosing cancer” (Korea Research Institute of Bioscience and Biotechnology, priority 2011, dated 2016).
